Series [1] has as its system SKBR3 of high HER2 expression. The series can be described thus: cell binding assay, SKBR3 cells. Also noted: species or system Human. As for the experimental part:
(§1) The rk polypeptide radiopharmaceuticals were sampled for radioactive HPLC analysis. The HPLC was conducted in an Agilent 1260 HPLC system equipped with a YMC-Pack ODS-A analytic column (250× 4.6 mm, I.D. S-5 μm, 12 nm), and a 20-min gradient elution was performed at a flow rate of 1 mL/min, wherein the mobile A phase was deionized water (containing 0.05% TFA) and the mobile B phase was acetonitrile (containing 0.05% TFA). The elution gradients were 90% A and 10% B at beginning, and 30% A and 70% B at 20 min. The labeling rate of ^99mTc-HYNIC-PEG4-(Aoc-rk)2 was >95%, and the radiochemical purity was >98% as measured by HPLC with a Sep-Pak C18 column. The results of a binding affinity assay of HYNIC-PEG4-(Aoc-rk)2 to HER2 are shown in FIG. 3: Human breast cancer cells SKBR3 of high HER2 expression and MCF7 of no HER2 expression were used as experimental samples, and ^99mTc-HYNIC-PEG4-(Aoc-rk)2 was used as a radioactive ligand specifically binding to HER2 receptor. In this cell binding assay, the binding capacities of ^99mTc-HYNIC-PEG4-(Aoc-rk)2 to SKBR3 and MCF7 were measured, with a blocking group treated with excessive HYNIC-PEG4-(Aoc-rk)2 to verify the binding specificity of ^99mTc-HYNIC-PEG4-(Aoc-rk)2 to SKBR3.

For series [2], the system named is MCF7 of no HER2 expression. Description: cell binding assay, MCF7 cells. Also noted: species or system Human. The protocol:
as §1

The test system of a further series is SKBR3 breast tumor model. Further details: species or system NOD SCID mice. The conditions noted are these: mouse, in vivo. The protocol:
(§2) Thus the polypeptide is suitable for delayed imaging and more beneficial for tumor diagnosis.
SPECT/CT imaging: Different tumor models with similar tumor sizes were selected, administered with 1 mCi ^99mTc-HYNIC-PEG4-(Aoc-rk)2 through tail vein, and subjected to SPECT/CT imaging 0.5 h later. The SPECT images were reconstructed after imaging, fused with the CT image to give 3D images of the mouse, and the tumor lesion was extracted by In VivoScope software for quantitative analysis.
Preparation of ^99mTc-HYNIC-PEG4-(PEG4-rk) 2:500 μL of a mixture containing 5.0 mg of trisodium triphenylphosphine-3,3′, 3″-trisulfonate (TPPTS), 6.5 mg of tricine, 38.5 mg of disodium succinate hexahydrate, 12.7 mg of succinic acid and 50 μg of HYNIC-PEG4-(PEG4-rk)2 was prepared in a 10 mL vial and lyophilized. 1.0-1.5 mL of Na^99mTcO4 solution (10-35 mCi) was added to the lyophilized powder. The vial was incubated in a water bath at 100° C. for 20-25 min, and cooled at room temperature for 10 min after the reaction is completed to give the rk polypeptide radiopharmaceutical. The rk polypeptide radiopharmaceuticals were sampled for radioactive HPLC analysis. The HPLC was conducted in an Agilent 1260 HPLC system equipped with a YMC-Pack ODS-A analytic column (250× 4.6 mm, I.D. S-5 μm, 12 nm), and a 20-min gradient elution was performed at a flow rate of 1 mL/min, wherein the mobile A phase was deionized water (containing 0.05% TFA) and the mobile B phase was acetonitrile (containing 0.05% TFA). The elution gradients were 90% A and 10% B at beginning, and 30% A and 70% B at 20 min. The labeling rate of ^99mTc-HYNIC-PEG4-(PEG4-rk)2 was >95%, and the radiochemical purity was >98% as measured by a Sep-Pak C18 column.

On the set-up of series [3]: species or system NOD SCID mice. To be noted: mouse, in vivo, iv. As for the experimental part: The biodistribution of ^99mTc-HYNIC-PEG4-(Aoc-rk)2 in tumor-bearing mice: NOD SCID mice bearing SKBR3 tumor were randomized with 4 mice in each group. Each group of mice were injected with different ^99mTc-labeled polypeptides via tail vein, and sacrificed at 30 and 60 min after injection. Samples of blood and major organs were collected, weighed and measured for radiological counting, and the decay-corrected percent injection dose rate per gram of tissue (% ID/g) was calculated. The results of the experiment are shown in FIG. 8, in which the uptake in tumor at 30 min was 3.7% ID/g, and the uptake was low in blood and organs other than kidney.

For a further series, the system named is breast cancer. It is filed as in vivo, human patients. The protocol: SPECT/CT imaging of ^99mTc-HYNIC-PEG4-(Aoc-rk)2 in breast cancer patients: with approval by the Ethics Review Committee of the Peking Union Medical College Hospital and informed consent, 20 female patients with suspected breast cancer by molybdenum target X-ray or ultrasonography were recruited and subjected to SPECT/CT imaging and PET/CT imaging 1 week before surgery. The patients were administered intravenously with 11.1 MBq (0.3 mCi)/kg body weight of ^99mTc-HYNIC-PEG4-(Aoc-rk)2 30 min before SPECT/CT scan, and 5.6 MBq (0.15 mCi)/kg body weight of ^18F-FDG 60 min before PET/CT scan.

In series [4] the test system is HER2-positive model (SKBR3 breast tumor model). To be noted: in vivo. From the text:
This is especially critical for breast cancer tumors in situ in the thorax, since the contrast agent ^99mTc-HPArk2 of the present invention is more advantageous in imaging breast cancer lesions in situ.
The specific difference of in vivo pharmacokinetics between the present invention and the radiopharmaceutical disclosed in Patent No. CN 109045313 A is shown in FIG. 11. FIG. 11 illustrates the uptake in tumor and comparison of data corresponding to the images in FIG. 10. […] FIG. 11 panel B illustrates the results of calculations from FIG. 11 panel A. The uptakes in tumor and the organs were compared and analyzed. […] As is also seen in FIG. 10, a smaller tumor was visualized by ^99mTc-HPArk2 imaging, and the imaging effect is guaranteed. […] Therefore, the contrast ratio for imaging is better, and particularly, the low uptake in heart and liver in the chest cavity may facilitate clear imaging of the in-situ tumor of the breast cancer.

For series [5], the target named is T1, HER2 (Homo sapiens, UniProt P04626). The series can be described thus: HER2 binding specificity detection at protein and cell level. To be noted: protein and cellular levels, FIG. 12.
Series [6] deals with HER2-negative EGFR-positive MDA-MB-468 breast cancer model. Description: imaging in HER2-negative/EGFR-positive tumor model. It is filed as in vivo. The conditions noted are these: FIG. 13. From the text:
Since EGFR and HER2 are members of the same family and have similar structures, they are difficult to be distinguished by targeting molecules. As such, false positives and false negatives are inevitable when detecting tumors.

For series [7], the target named is T1, HER2. The series can be described thus: correlation between uptake in tumor and HER2 expression level in tumor models. It is filed as in vivo, mouse. Further details: tumor cells with different HER2 expression levels, including human breast cancer cell lines SKBR3, MCF7 and MDA-MB-468; endogenous in cells; host or cells: SKBR3, MCF7, MDA-MB-468, HT29, BxPC3 human tumour cells as xenografts in mice. To be noted: SKBR3 (high), HT29 (moderate), BxPC3 (low HER2) tumor models.
Text: as §2
Correlation between uptake of ^99mTc-HYNIC-PEG4-(Aoc-rk)2 in tumor and HER2 expression level: tumor cells with different HER2 expression levels, including human breast cancer cell lines SKBR3, MCF7 and MDA-MB-468, human colorectal cancer cell line HT29 and human pancreatic cancer cell line BxPC3, were selected and subjected to flow cytometry for quantitative analysis of HER2 expression in cells. Then the tumor models of the cells were subjected to SPECT/CT imaging, and the uptake in tumor was quantitatively analyzed. Finally, the correlation between HER2 expression and the uptake in tumor was investigated.
Flow cytometry: The cells were digested using 0.25% EDTA/pancreatin, blocked for 15 min, centrifuged, washed with PBS, and divided into a treatment group and a control group. […] The two groups were incubated for 0.5 h in the dark at 4° C., washed for 3 times using cold PBS, and analyzed on a flow cytometer. The mean fluorescence intensity (MFI) of the bound antibody on each cell was calculated through a standard flow cytometry curve. […]
Analysis of correlation between HER2 expression level and uptake in tumor: the linear relationship between HER2 expression level (MFI) and uptake in tumor (% ID/g) was plotted using prism 7.0 software, and the R^2 value was calculated.

Another series in a line: water solubility. To be noted: compared with refvffly polypeptide. It is filed as physicochemical.

Regarding `CC(C)C[C@@H](NC(=O)[C@@H](CCCNC(=N)N)NC(=O)[C@@H](CC(C)C)NC(=O)[C@@H](CCC(=O)O)NC(=O)[C@@H](Cc1c[nH]c2ccccc12)NC(=O)[C@@H](CC(N)=O)NC(=O)[C@@H](CCCNC(=N)N)NC(=O)CCCCCCCNC(=O)CC[C@H](NC(=O)CCOCCOCCOCCOCCNC(=O)c1ccc(NN)nc1)C(=O)NCCCCCCCC(=O)N[C@H](CCCNC(=N)N)C(=O)N[C@H](CC(N)=O)C(=O)N[C@H](Cc1c[nH]c2ccccc12)C(=O)N[C@H](CCC(=O)O)C(=O)N[C@H](CC(C)C)C(=O)N[C@H](CCCNC(=N)N)C(=O)N[C@H](CC(C)C)C(=O)N[C@H](CCCCN)C(=O)O)C(=O)N[C@H](CCCCN)C(=O)O` [^99mTc-HYNIC-PEG4-(Aoc-rk)2, metal not drawn], the “binding rate per 10^5 cells, blocking group” value in series [1] (SKBR3 blocking group treated with excessive HYNIC-PEG4-(Aoc-rk)2) was 1.24 % per 10^5 cells. Moreover, the “binding rate per 10^5 cells” value in series [1] (SKBR3 cells) stood at 4.49 % per 10^5 cells. In addition, in [2], the “binding rate per 10^5 cells” value came out at 1.14 % per 10^5 cells. Further, in the series with SKBR3 breast tumor model, the “tumor visualization in delayed imaging” value is recorded as “still clearly visualized”; the “uptake in tumor (SPECT/CT)” value was “clearly visible and significantly higher than that of the monomer”; the “uptake in tumor, Herceptin blocking group” value is on record as “substantially unchanged”; the “uptake in tumor, cold peptide blocking group” value is “significantly reduced uptake in tumor”. Moreover, in the series with SKBR3 breast tumor model, the “whole-body background (SPECT/CT)” value is recorded as “clean whole-body background”. In series [3], this compound had a tissue uptake at 0.5 h of 3.7 %ID/g. In addition, in the series with breast cancer (5 of 6 patients), the “patients with lymph node metastasis in whom metastasis was shown” value was found to be 83%. In addition, in the series on breast cancer (14 of 15 patients, 11.1 MBq/kg i.v., 30 min before scan), the “patients with pathologically diagnosed breast cancer whose tumor was accurately imaged” value came out at 93%. For the same compound, the “adverse effects during the clinical trial” value with breast cancer (human, in vivo) is given as “No adverse effect related to the radiopharmaceutical was found”. In [4], the “hepatic uptake (FIG. 10)” value is recorded as “lowest”; the “ratios of tumor to normal tissues such as blood, heart, liver, spleen, intestine and stomach” value is reported as “relatively higher”; the “uptake in blood, heart, liver, spleen, intestine, stomach, bone and other tissues” value is given as “relatively lower”; the “uptake in tumor (biodistribution, FIG. 11)” value was “relatively higher uptake in tumor than those of ^99mTc-HP4-ref and ^99mTc-HP24-ref”. In series [4], the “uptake in tumor (image quantification, FIG. 10)” value is reported as “higher uptake in tumor than that of ^99mTc-HP24-ref, with no significant difference from ^99mTc-HP4-ref” and the “uptake ratio of tumor to liver” value is given as “highest”. Further, on HER2 [5], the HER2 specificity result was “good specificity at both protein and cellular levels”. Besides, the “imaging result in HER2-negative EGFR-positive model” value in series [6] is given as “negative result”. Further, on HER2 [7], the “relation of uptake to HER2 expression level (SPECT/CT)” value is “linearly related to the expression level of HER2”.
As for `CC(C)C[C@@H](NC(=O)[C@@H](CCCNC(=N)N)NC(=O)[C@@H](CC(C)C)NC(=O)[C@@H](CCC(=O)O)NC(=O)[C@@H](Cc1c[nH]c2ccccc12)NC(=O)[C@@H](CC(N)=O)NC(=O)[C@H](N)CCCNC(=N)N)C(=O)N[C@H](CCCCN)C(=O)O` [rk polypeptide, Arg-Asn-Trp-Glu-Leu-Arg-Leu-Lys], the water solubility entry in the series “water solubility” was “superior to that of refvffly polypeptide”.

The tissue uptake is the percentage of the injected dose found per gram of tissue. A higher tissue uptake goes with strong accumulation.

(Values after patent US12576170B2, “Rk polypeptide radiopharmaceutical targeting HER2 and preparation method thereof” (BEIJING GILUNTIDE PHARMACEUTICAL CO., LTD., priority 2019, dated 2026).)
